Measured values from publication PMC11006472.

Target: human ER membrane protein complex (EMC) with EMC2-3xFlag and EMC5-Twin-Strep (human (endogenous in Expi293F) | human) (UniProt Q8N766)
Test: cryo-EM structure; VDAC1-bound class of the purified human EMC sample in digitonin (complex co-purified from cells), single-particle cryo-EM, 3.32 Å

Sequence of UniProt Q8N766 (Q8N766 whole entry, looked up, one chain of several): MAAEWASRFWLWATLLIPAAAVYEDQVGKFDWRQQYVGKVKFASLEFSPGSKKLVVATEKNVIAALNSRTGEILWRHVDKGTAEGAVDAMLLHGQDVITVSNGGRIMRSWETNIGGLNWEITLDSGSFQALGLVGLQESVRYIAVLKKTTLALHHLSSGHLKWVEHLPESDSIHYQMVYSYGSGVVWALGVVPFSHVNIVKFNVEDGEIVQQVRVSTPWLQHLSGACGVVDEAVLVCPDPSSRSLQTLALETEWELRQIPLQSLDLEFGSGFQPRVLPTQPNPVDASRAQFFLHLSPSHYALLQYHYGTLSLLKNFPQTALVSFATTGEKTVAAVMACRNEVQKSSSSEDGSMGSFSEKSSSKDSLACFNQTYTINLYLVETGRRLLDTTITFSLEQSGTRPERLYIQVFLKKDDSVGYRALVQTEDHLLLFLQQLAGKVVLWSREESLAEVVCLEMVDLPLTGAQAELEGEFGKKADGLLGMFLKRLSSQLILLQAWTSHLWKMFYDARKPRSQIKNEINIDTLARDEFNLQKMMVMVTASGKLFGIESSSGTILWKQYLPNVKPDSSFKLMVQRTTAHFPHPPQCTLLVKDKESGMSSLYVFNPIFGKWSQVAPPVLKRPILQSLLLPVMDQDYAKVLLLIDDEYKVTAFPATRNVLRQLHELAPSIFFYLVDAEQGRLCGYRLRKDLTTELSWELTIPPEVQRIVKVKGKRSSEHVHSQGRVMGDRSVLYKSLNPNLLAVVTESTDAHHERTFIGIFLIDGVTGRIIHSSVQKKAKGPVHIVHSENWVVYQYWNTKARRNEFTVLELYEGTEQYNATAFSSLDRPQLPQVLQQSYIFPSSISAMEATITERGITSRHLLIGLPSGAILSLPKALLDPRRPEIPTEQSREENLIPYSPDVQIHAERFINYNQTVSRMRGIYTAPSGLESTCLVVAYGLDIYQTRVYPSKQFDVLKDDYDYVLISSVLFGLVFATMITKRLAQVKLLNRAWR

- stoichiometry N: 1
Substance: voltage-dependent anion channel 1 (VDAC1), endogenous (from UniProt P21796 1-283) (natural protein)
